In the DeepSol protein solubility set:

Assay: soluble on expression in E. coli; label from the status in PepcDB or PDB records
For “MPFAHKVVMRTALYWEPLEDGKVKCKLCPLNCIINPEKRGSCKVRINIDGKLYTLNYGKVSSIALDPIEKKPLFHFWPGSCAFSIGTVGCNMHCKHCQNWEISQADESFPYLQDATPESIVRLARHYECESIAYTYNEPTIWYEFVLDTAKLAKKEGLNNILVTNGYINEEPFRELAKYIDAMNIDIKAFNDKFYMKISSVPSGEPSRRTAVIAKKEFGIHVELTYLIIPTLNDNEEEIRRFARWVVEELGDDTPVHFSRFFPHYKLLNLPPTPIQTLEKAYKIAKEEGLKFVYLGNVPGHEGENTYCPRCGKLLIERWGFEILRYEIKDGKCKYCGEQIPIVGEYQRKTYRGMWW”, the “soluble on expression in E. coli” value was “not soluble”. For “MSLDWTCKHHADLTLKELYALLQLRTEVFVVEQKCPYQEVDGLDLVGDTHHLMAWRDGQLLAYLRLLDPVRHEGQVVIGRVVSSSAARGQGLGHQLMERALQAAERLWLDTPVYLSAQAHLQAYYGRYGFVAVTEVYLEDDIPHIGMRRA”, the “soluble on expression in E. coli” value was “soluble”. For “SLSDTLNSLQLGERPEGRTLLTASWVVGHKDGSHRLLKNGEVVFENGEILFVGHGFPGEVARRIDFGNALVSPGLIDLDALSDLDTTILGIDHHPGWAKGRVWPRSYVEAGPYEMYSAEELAFQKRFAFGQLLLNGITTAAPIASLFYRAWGETVAEFEAAADAAGELGLRVYLSPAFRSGGMVLEEPGRMFPVFDEERGFQGLKEAIAFIEKQSGRHGDLVRGMLAPDRVETSTLGLIERTDAAARELGCKFRLHMAQGVMEVDTVRKLHGSTAPVWLAKAGLLSERLIAPHATNATEEDLALYAENGVSIVHCPLVSSRGGSTLSSFSSCRKRGINIAMGTDTAPADMFMNLLVGLITCRINDGAPDQIRCADLFDAATLGGARALGRSDLGHLSSGARADIAVFDLDDAVMAPSVDPITTLVTGGSGKVTRAVFVDGRLSMRERQVAHIDMRRAREQAQAQFDRLIAKYPERSWANPPVSEIFPPSYQVEVAQHG”, the “soluble on expression in E. coli” value was “not soluble”. For “MSPGAWPRPRVVVSACLGFAAVRYSGELIPDKVVAALKEHVDFVPVCPEVEIGLGVPRPVVRLVRGEGGGPRMVQPKTGEDLTERMRAFSQRFLQGLGEVEGFLLKNRSPSCALKDAKRYAHAEGGGVVGKGPGLFAQAVEEAFPLLPKEDEGRLTNPRIRAHFFTRIFALARLRRVEDLPGLMAFHARYKLLLLAYNQKEARALGRLLAGAKGRPFPEVHGAYEEGFLRATERPWRLGAMADALLHAFGHFKKALAPREKAHFLDLLADFREERLPLEAPLALLASWARRFAEPYVEAQALLEPYPRALMHVPGA”, the “soluble on expression in E. coli” value was “soluble”. For “MSLAPANGLRIYALGGISEIGRNMTVFEYNNRLLIVDCGVLFPSSGEPGVDLILPDFGPIEDHLHRVDALVVTHGHEDHIGAIPWLLKLRNDIPILASRFTLALIAAKCKEHRQRPKLIEVNEQSNEDRGPFNIRFWAVNHSIPDCLGLAIKTPAGLVIHTGDIKLDQTPPDGRPTDLPALSRFGDEGVDLMLCDSTNATTPGVSGSEADVAPTLKRLVGDAKQRVILASFASNVYRVQAAVDAAVASNRKVAFNGRSMIRNMEIAEKLGYLKAPRGTIISMDDASRMAPHKVMLITTGTQGEPMAALSRMARREHRQITVRDGDLIILSSSLVPGNEEAVFGVINMLAQIGATVVTGRDAKVHTSGHGYSGELLFLYNAARPKNAMPVHGEWRHLRANKELAISTGVNRDNVVLAQNGVVVDMVNEGHHHHHH”, the “soluble on expression in E. coli” value was “soluble”. With “MDGNDINIQKNEFSRDQSALLMMDQHSDHKNHESAIGEPGMSYTASQPALSSTEHQTPLVSEASVAAPQNHLNGNSHESVSEMDRNSVDFAIESVLMKARAYNKMGAPKDPRRKQHNPKSEPKIEPHVTDSSDNQAAMSNKMEAEAPKMESNQNYVSNGSEPPFRFVSISNFDEMKTKKKEVQEELKLEVDSDSEEDDVPEQKTPKESDRCGGCGKFTHEDDLIALEEEKKKEKEKPLMSKKKSHHHKKNDFQWIGCDSCQTWYHFLCSGLEQFEYYLYEKFFCPKCVPHTGHSIRYKVVAPHRYRWYSPNEKHLGIEVGSKTWIEDFITRENTVPSPTDDEVCIVEDGYEFRREFEKLGGADNWGKVFMVKDMDGLNMTMPKPGFDLEDVVKIMGSDYEVDTIDVYNQSTYSMKLDTFRKLFRDTKNRPLLYNFLSLEFSDNNEMKEIAKPPRFVQEISMVNRLWPDVSGAEYIKLLQREEYLPEDQRPKVEQFCLAGMAGSYTDFHVDFGGSSVYYHILKGEKIFYIAAPTEQNFAAYQAHETSPDTTTWFGDIANGAVKRVVIKEGQTLLIPAGWIHAVLTPVDSLVFGGNFLHLGNLEMQMRVYHLENAIRKEIRSEEKFYFPNFELLHWMYMRNVLLEKITEANQEGSDMREQEKNIWTASQIMKAEMERWMDRELRLGPEKNAILPTDDKNKIMISVRKQIEIQTKIQNAKNKPMGLKQKRKSRESAERDDEDYCPSSSTAYKKKYTKKAKKDNDDAPKVKKAKKEEVPEEKVPVPEAAGPSEVTAPLTIKIGMGPTEDQKGVVQIFNNQCTSSGRKVKLNQNVADYCGSHLEARVEEIPEKATKSFRELDNELERCEAVHSGEKIKKVKEPKPPKQPKEKKEKPPPKKKEMSSRDRLMKKLKM” the “soluble on expression in E. coli” value was “not soluble”. In the case of “MGSDKIHHHHHHMTKLHYIRNKDCNMKEGLKLNKGKLIAQGKTSEVFEYGQDKILKLFRKDLPEKNIENEYEVSFNLSKKMKLVPKVYDLVEVDDRKGIIYEKVNGTTMMEVISSKPWKVKKEAQRLAELHEAIQKPVDFELPDYKTTLKENISKTELLEEDIKKRLYDYIDELKDDDLLCHGDFHPDNVLITEEGEVIIDWMTASKGSRIADIARTSVMLKFGASPVKRSAEKKIIKFVRNRFYSGYIKHYMKITGINKEQIEEWELPIAAARLNEWLPKSEKVDLLKFIDMKMK”, the “soluble on expression in E. coli” value is reported as “not soluble”. For “MIFTTQVKYTYDTLSTFPEDMPSREGFTLISDHFGAGMLAPMEVVVNSKESMKSSLENVNGVASVTGPERSKGYQKYTLILKDNPYSNEAMDVVPKVRAAADKGNDVYIAGQTATQYDDRAVTEHDEKVIIPLEHHHHHH”, the “soluble on expression in E. coli” value was “soluble”. With “MTITPNKLTLKIGRAEGRPGDTVEIPVNLYGVPQKGIASGDFVVSYDPNVLEIIEIEPGELIVDPNPTKSFDTAVYPDRKMIVFLFAEDSGTGAYAITEDGVFATIVAKVKEGAPEGFSAIEISEFGAFADNDLVEVETDLINGGVLVTNKPVIEGYKVSGYILPDFSFDATVAPLVKAGFKVEIVGTELYAVTDANGYFEITGVPANASGYTLKISRATYLDRVIANVVVTGDTSVSTSQAPIMMWVGDIVKDNSINLLDVAEVIRCFNATKGSANYVEELDINRNGAINMQDIMIVHKHFGATSSDYDAQLEHHHHHHMRGSHHHHHHTDLRADKASSIELKFDRNKGEVGDILIGTVRINNIKNFAGFQVNIVYDPKVLMAVDPETGKEFTSSTFPPGRTVLKNNAYGPIQIADNDPEKGILNFALAYSYIAGYKETGVAEESGIIAKIGFKILQKKSTAVKFQDTLSMPGAISGTQLFDWDGEVITGYEVIQPDVLSLGDEPF” the “soluble on expression in E. coli” value was “soluble”. With “MHIQIDGIPIEILRKPIKNLNLRIYPPDGLVKVSVPLKYSEQLIKQQLQEKSKWIRAQCEQIRARSFYREPSLQTGATIPFKGKSYLLIVEEHYGPSQILIKNELIYCYTKPDLTPQQKQNILDRWYRKEMNLVIPRLIQQWEAIMKVKINQWGIKKMKTRWGSCNPRAQRIWLNLNLIKKPLECLEYVLVHEMVHILEASHNKRFYALMTQFMPKWQEYQRILEGTPNASTFARLEHHHHHH” the “soluble on expression in E. coli” value was “not soluble”. With “MSLDARKNNVTIKVGMIGDSSIGKTSLMVTYVQGSFDEESTQTLGVNFMEKTISIRNTEITFSIWDLGGQREFVNMLPMVCNDAVAILFMFDLSRKSTLNSIKEWYRQARGFNKTAVPILIGTKYDHFMTFPREDQEEITKQARRYAKAMKASLVFCSTSHSINVQKIFKIVLAKVFDLKCTIPEIKNVGDPILEYIDREGHHHHHH” the “soluble on expression in E. coli” value was “soluble”. For “MMLAISEIRKHPDGLSFDRLCDVKSMLLERDQQIIDIKAVKAVGNVRYDKGLYLLDYQLSYEVILPSSRSMVPVCLSEVQHIQELFIEATDLADKKELVEDNLVLVLDKDAINLEESIVDNILLAIPVQVLTEEEKKSKELPAGQNWAVLTEEDYQCLKEEKQKENNPFASLQGLFDE”, the “soluble on expression in E. coli” value was “not soluble”. With “MSNTQKKNVPELRFPGFEGEWEEKKLGNLTTKIGSGKTPKGGSENYTNKGIPFLRSQNIRNGKLNLNDLVYISKDIDDEMKNSRTYYGDVLLNITGASIGRTAINSIVETHANLNQHVCIIRLKKEYYYNFFGQYLLSRKGKRKIFLAQSGGSREGLNFKEIANLKIFTPTIFEEQQKIGKFFSKLDRQIELEEQKLELLQQQKKGYMQKIFTQELRFKDENGEEYPEWENKFIKDIFIFENNRRKPITSSLREKGLYPYYGATGIIDYVKDYLFNNEERLLIGEDGAKWGQFETSSFIANGQYWVNNHAHVVKSNDHNLFFMNYYLNFKELRAFVTGNAPAKLTHANLCNINLKIPCLTEQDKVSALLKSIDNKMNNQMNRIELLKERKKGLLQKMFI” the “soluble on expression in E. coli” value was “not soluble”. With “MGSDKIHHHHHHMGLYDLLDAEGKDDQKGKSPGVAVGVVADNQDPEGMGRVKVRFPWKDDADESTWARVVTPMAGKGRGLWFLPEVGDEVLVAFDHGDVQHPYVLGSLWNGTDTPPGDNGDGNNNIRKITSRSGHELVFDDTSGAEKVVIRTKAGHAITLDDAGGGEKIEIKDKSGSNKLVIDSAQNSIGIESSMKLTIKGQMVEIQSDANMTLKAGAVMTIQGSMVKIN” the “soluble on expression in E. coli” value was “not soluble”. With “METQIHQLEQEAYTAVLRAFKAQSDAISWEKESLITELRKELRVSDDEHRELLSRVNKDDTIQRIRDWRQGGASQITRHATIQPFDVLPSPTFSAARKKQKTFPSYNPSIGATGNRSFNNRLVSSGISGNESAEALIGRKVWTKWPEDNHFYEAIITQYNADEGRHALVYDIHAANETWEWVDLKEIPPEDIRWDGEESGVALNIGHGSASFRGNRRGQIHGGRGRGPRIHQPRRELVPPPTQQNGSGGRRTSSDDIELFNTDSLVKEVERVFDSTHPDPLELDKAKKMLKEHEQALIAAIARLADTSDGEMDGDPPYSHDHPMPQG” the “soluble on expression in E. coli” value was “not soluble”. In the case of “MLNKEIKGALIVSCQALADEPLHSSFIMSKMALAAKQGGAKGIRANSVVDIRAIRKEVDLPIIGIIKRDYPDAEVYITATMREVDELMAVQPEIIALDATHSKRPNGETLATFFKRIKEKYPNQEWMADCSTLEEMIEAAELGFDYIGTTLVGYTPQSENQRIEQNDFELLREAKKHFTTPIIAEGMIDTPAKVQRVLELGTYSVVVGSVITRPQKITEKFVEATKIKQNQA”, the “soluble on expression in E. coli” value is reported as “not soluble”. In the case of “RAPDLAGVPDCLVIVGGSMAAVKAPTALRRLREGGASTAVIATRAALAFITPLSLATAGNCEVATDETWFAPQPIAQHLSLARARVTVVLGASAELLAAAAHGHADTLATATLLSAEGQVLWVPAMNERMWLHPAVQANAERLRGWGHLFLGPETGAFGTPGEGSGTGRMAEPEAIAARALALLNEQDAEAEAAPQDLAGLKVV”, the “soluble on expression in E. coli” value is reported as “not soluble”. For “MSLEARGLNVTIMKLDPYINVDPGTMSPTQHGEVFVTQDGAETDLDLGHYERFIRTKMTKRNNFTTGKIYSEVLRKERRGDYLGATIQVIPHITNEIKDRVIAGAQGHDVVIVEVGGTVGDIESLPFLEALRQLAVQVGREHTLFMHLTLVPYIPTAGEVKTKPTQHSVKELLSIGIQPDVLICRSDRMIPPNERAKIALFCNVAERAVISLKDVNSIYQIPALLKSQGLDDFVCERFRLTCPEADLTEWEQVLYKQANPVGEVTIGMVGKYTELPDAYKSVNEALKHAGLTNRLSVNIKYIDSQDVETKGVEVLKGIDGILVPGGFGYRGVEGKIRTAQYARENKIPYLGICLGMQIALIEYARNVAGLTKANSSEFDKDCEQPVVALITEWQDAEGNTEVRTDESDLGGTMRLGAQQCHLVSGSRARELYGKETIEERHRHRYEVNNTLLPQIEKAGLKVTGLSADKKLVEIIEVPNHPWFVACQFHPEFTSTPRDGHPLFAGFVKAAYENHKKSVKEGHHHHHH”, the “soluble on expression in E. coli” value was “not soluble”.
